From US20220112288A1 (published 2022)

B1: CD8B268 (antibody, human IgG1, kappa, V domains shown)
VH: QVQLQQSGAELVKPGASVKLSCKASGYTFTVYTIHWVKQRSGQGLEWIGWFYPGSGNIKYNEKFKDKATLTADKSSHTVYMELSRLTSEDSAVYFCARHEDNHYYDGNSWFAYWGQGTLVTVSA
VL: DIQMTQSPASLSASVGQTVTITCRASGNIHNYLAWFQQKQGKSPQLLVYNAKTLADGVPSRFSGSGSGTQYSLKINSLQTEDFGNYYCQHFWNTPYTFGGGTKLEIKR
notes: Full-length human IgG1, kappa; V regions recovered from mouse hybridoma
B2: CD8B273 (antibody, human IgG1, kappa, V domains shown)
VH: QVQLQQSGAELVKPGASVKLSCKASGYTFTEYTIHWVKQRSGQGLEWIGWFYPGTGSIKYNEKFKDKATLTADKSSHTVYMELSKLTSEDSAVYFCARHEDNHYYDGNSWFAYWGQGTLVTVSA
VL: DIQMTQSPASLSASVGETVTITCRASGNIHNYLAWFQQKQGKSPQLLVYNAKTLADGVPSRFSGSGSGTQYSLKINSLQAEDFGSYYCQHFWSTPYTFGSGTKLEIKR
notes: as for B1
B3: CD8B312 (antibody, human IgG1, kappa, V domains shown)
VH: QVQLQQPGADLVKPGASVKLSCKASGYTFTSFWMHWVKQRPGQGLEWIGNVDPSDSQTHYNQKFKDKATLTVDKSSNTAYMQLSSLTSEDSAVYYCARSTYYRYDGPFTYWGQGTTVTVSS
VL: DIVLTQSPATLSVTPGDSVSLSCRASQSINNNLHWYQQKSHESPRLLIKYTSQSISGIPSRFSGSGSGPDFTLSINSVETEDFGMYFCQQSNSWPLTFGGGTKLEIKR
notes: as for B1
B4: CD8B200 (antibody, human IgG1, kappa, V domains shown)
VH: EVQLQQSGAELVKPGASVKLSCKASGYTFTNYWIHWVKQRPGQGLEWIGNIDPSDSETHYNQKFKDKATLTVDKSSSTAYMQLISLTSEDSAVYYCASGLTGTGYYWGQGTTLTVSS
VL: DIQMTQTTSSLSASLGDRVTITCRASQDISPYLNWYQQKPEGTIKLLIYYTSKLHSGVPSRFSGSGSGTDYSLTISNLEQEDIATYFCQQDNTLPYTFGSGTKLELKR
notes: as for B1
B5: CD8B246 (antibody, human IgG1, kappa, V domains shown)
VH: QVQLKESGPGILKPSQTLSLTCSFSGFSLSTSGMNVGWIRQPSGKGLEWLAHIWWDDDKYYNPSLKSQLTISKDTSRNQVFLKITSVDTADTATYYCARRGNYGNYEFAYWGQGTTLTVSS
VL: DIQMTQTTSSLSASLGDRVTISCRASQDIRNYLNWYQQKPDGTVKLLIYHTSRLHSGVPSRFSGSGSGTDYSLTISNLEQEDIATYFCQQGNTLPWTFGAGTKLELKR
notes: as for B1
B6: CD8B304 (antibody, human IgG1, kappa, V domains shown)
VH: QVTLKESGPGILKPSQTLSLTCSFSGFSLSTSGMNVGWIRQPSGKGLEWLAHIWWDDDKYYNPSLKSQLTISKDTSRNQVFLKITSVDTADTATYYCARRGNYGNYEFAYWGQGTTVTVSS
VL: DIQMTQTTSSLSASLGDRVTISCRASQDIRNYLNWYQQKPDGTVKLLIYHTSRLHSGVPSRFSGSGSGTDYSLTISNLDQEDIATYFCQQGNTLPWTFGAGTKLELKR
notes: as for B1
B7: CD8B270 (antibody, human IgG1, kappa, V domains shown)
VH: QVQLQQPGAELVKPGASVMLSCKASGYTFTNYWMHWVKQRPGQGLEWIGNIDPSDSETHYNQKFKDKATLTVDKSSSTAYMQLSSLTSEDSAVYYCASGLTGTGYYWGQGTTLTVSS
VL: DIQMTQTTSSLSASLGDRVTITCRASQDIRPYLNWYQQKPEGTIKLLIYFTSKLHSGVPSRFSGSGSGTDYSLTISNLEQEDIATYFCQQDNTLPYTFGSGTKLELKR
notes: as for B1
B8: CD8B303 (antibody, human IgG1, kappa, V domains shown)
VH: QVQLKESGPGLVAPSQSLSITCTVSGFSLSIYSIHWVRQPPGKGLEWLGMIWGGGSTDYNSTLNSRLSIIKDNSKSQVFLKMNSLQTDDTAMYYCARNPHHYGGSTGAMDYWGQGTTVTVSS
VL: DVQMIQSPSSLSASLGGTVTITCKASQDIKKYMAWYQHKPGKGPRLLIHYTSSLQPGIPSRFSGSGSGRDYYFSISNLEPEDIATYFCLQYDNLFTFGSGTKLELKR
notes: as for B1
B9: CD8B271 (antibody, human IgG1, kappa, V domains shown)
VH: DVQLQESGPGLVAPSQSLSITCTVSGFSLSIYSIHWVRQPPGKGLEWLGMIWGGGDTDYNSALKSRLSISKDNSESQVFLKMNSLQTDDTAMYYCARNPHYYGGTYEYFDVWGTGTTVTVSS
VL: DIQMTQTTSSLSASLGDRVTISCSASQGISNYLNWYQQKPDGTVKLLIYDTSILYSGVPSRFSGSGSGTDYSLTISNLEPEDVATYYCQQYSNLPYTFGSGTKLEIKR
notes: as for B1
B10: CD8B213 (antibody, human IgG1, kappa, V domains shown)
VH: EVQLQQSGPELVKPGDSMKMSCKASGYIFTDYYMDWVKQSHGKSLEWIGYIYPNNGITSYNQKFKGRATLTIDKSSSTAYMELHSLTSEDSAVYYCARSIYYDHGGGFPYWGQGTSVTVSS
VL: DIVLTQSQKFMSTSVGDRVSVTCKASQNVDKYVAWYQQKPGQSPKALIYSASYRYSGVPDRFTGSGSGTDFTLTISNVQSEDLAEYFCQQYNTYPSFGSGTKLEMKR
notes: as for B1
B11: CD8B361 (antibody, human IgG1, kappa, V domains shown)
VH: EVQLQQSGPELVKPGNSVKMSCKASGYTFTDYYMDWVKQSHGTSLEWIGYIYPNNGDTRYNQKFKDKATLTVDKSSSTAYMELHSLTSEDSAVFYCARSIYYDHGGGFPYWGQGTLVTVSA
VL: DIVMTQSQKFMSTSVGDRVSVTCKASQNVGTYVAWYQQKPGQSPKALIYSASYRYSGVPDRFTGSGSGTDFTLTINNVQSEDLAEYLCQQYNSYPTFGGGTRLEIKR
notes: Full-length human IgG1, kappa; V regions recovered from mouse hybridoma; also called CD8B36I
B12: CD8B364 (antibody, human IgG1, kappa, V domains shown)
VH: QVQLQQPGAELVKPGASVKLSCKASGYTFTSYWMHWVNRRPGQGLEWIGEINPSNGDSYYNEKFKRKATLTVDISSSTAYMQLSSLTSEDSAVYYCTRSMYYDGRAGAYWGQGTTVTVSS
VL: DIVLTQSPASLSVATGEKVTIRCITSTDIDDDMNWYQQKPGEPPKLLISEGNTLRPGVPSRFSSSGYGTDFVFTIENTLSEDVADYYCLQSDNMPLTFGAGTKLELKR
notes: as for B1
B13: CD8B240 (antibody, human IgG1, kappa)
heavy: not shown
light: DIVMTQSPATLSVTPGDRVSLSCRASQSISDFLHWYQQKSHESPRLLIKYASQSISGIPSRFSGSGSGSDFTLTINSVEPEDVGVYYCQNGHSFPYTFGSGTKLEIKRTVAAPSVFIFPPSDEQLKSGTASVVCLLNNFYPREAKVQWKVDNALQSGNSQESVTEQDSKDSTYSLSSTLTLSKADYEKHKVYACEVTHQGLSSPVTKSFNRGEC
notes: as for B1
B14: CD8B191 (antibody, human IgG1, kappa)
heavy: not shown
light: DIVLTQSPATLSVTPGDRVSLSCRASQSISDFLHWYQQKSHESPRLLIKYASQSISGIPSRFSGSGSGSDFTLTINSVEPEDVGVYYCQNGHSFPYTFGSGTKLEIKRTVAAPSVFIFPPSDEQLKSGTASVVCLLNNFYPREAKVQWKVDNALQSGNSQESVTEQDSKDSTYSLSSTLTLSKADYEKHKVYACEVTHQGLSSPVTKSFNRGEC
notes: as for B1

What follows are binders tested against T1, human CD8 on human pan T cells (CD4-negative population) (human, UniProt P01732 22-235; P10966 22-210) (assay: flow cytometry, 20 nM antibody on human pan T cells, A647 anti-human IgG Fc; geomean ratio in CD4-negative population).
T1 construct: whole, on cells; Endogenous CD8 on primary human pan T cells, read in the CD4-negative gate; also called CD8α/β
T1 sequence (P01732 22-235, chain 1 of 2): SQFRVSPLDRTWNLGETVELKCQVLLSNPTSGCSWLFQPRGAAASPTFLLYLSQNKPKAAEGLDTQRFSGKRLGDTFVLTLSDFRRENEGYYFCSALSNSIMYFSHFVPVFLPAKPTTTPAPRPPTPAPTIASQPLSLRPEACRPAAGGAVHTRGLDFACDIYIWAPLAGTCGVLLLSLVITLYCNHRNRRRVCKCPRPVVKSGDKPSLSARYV
T1 sequence (P10966 22-210, chain 2 of 2): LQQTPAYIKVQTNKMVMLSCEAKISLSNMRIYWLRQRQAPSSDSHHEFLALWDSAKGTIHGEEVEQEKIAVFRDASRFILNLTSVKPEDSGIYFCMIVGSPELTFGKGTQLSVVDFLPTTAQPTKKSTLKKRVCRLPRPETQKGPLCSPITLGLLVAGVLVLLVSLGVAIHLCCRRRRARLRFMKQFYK
Method: Cell binding. […] Percent CD8 positive population was calculated by percentage of CD8-positive cell count/live cell count.

How did the “Cell Binding to Human PanT Signal/Background (of CD4 negative population)” value turn out when B1 was run?
Its value is 1170.

How did the “Cell Binding to Human PanT Signal/Background (of CD4 negative population)” value turn out when B2 was run?
Its value is 938.

B3 was tested. Which “Cell Binding to Human PanT Signal/Background (of CD4 negative population)” value did it give?
The value was 1090.

Which “Cell Binding to Human PanT Signal/Background (of CD4 negative population)” value does the source give for B4 here?
Its value is 1990.

With B5 as the binder, how does the “Cell Binding to Human PanT Signal/Background (of CD4 negative population)” value read?
Its value is 1110.

For B6, which “Cell Binding to Human PanT Signal/Background (of CD4 negative population)” value is on record?
Its value is 923.

B7 was tested. Which “Cell Binding to Human PanT Signal/Background (of CD4 negative population)” value did it give?
Its value is 2500.

How did the “Cell Binding to Human PanT Signal/Background (of CD4 negative population)” value turn out when B8 was run?
The value was 1180.

With B9 as the binder, how does the “Cell Binding to Human PanT Signal/Background (of CD4 negative population)” value read?
The value was 911.

How did the “Cell Binding to Human PanT Signal/Background (of CD4 negative population)” value turn out when B10 was run?
The value was 827.

How did the “Cell Binding to Human PanT Signal/Background (of CD4 negative population)” value turn out when B11 was run?
The value was 1050.

B12 was tested. Which “Cell Binding to Human PanT Signal/Background (of CD4 negative population)” value did it give?
Its value is 1560.

How did the “Cell Binding to Human PanT Signal/Background (of CD4 negative population)” value turn out when B13 was run?
The value was 1310.

How did the “Cell Binding to Human PanT Signal/Background (of CD4 negative population)” value turn out when B14 was run?
Its value is 2440.
